In patent publication US20240131074A1 (TENEOBIO, published 2024):

B1: Anti-PSMA heavy chain-only antibody (UniAb) Clone ID 325972 (antibody, V domains shown)
VH: EVQLLESGGGVVQPGRSLRLSCAASGFSFSGYGMHWVRQAPGKEREWVAVISYDGSNKYYADSVKGRFTISRDNSKNTLYLQMNSLRAEDTAVYYCAKDANWGQHPDHTSFDYRGQGTLVTVSS
notes: Heavy chain-only antibody with no light chain
B2: Anti-PSMA heavy chain-only antibody (UniAb) Clone ID 325795 (antibody, V domains shown)
VH: EVQLLESGGGLVQPGGSLRLSCAASGFTFKFYAMSWVRQAPGKGPEWVSVISGSGGSTYYADSVKGRFTISRDNSKNTLHLQMNSLRAEDTAVYFCAKEIAEASRGFDYRGQGTLVTVSS
notes: as for B1

Columns and labels:
[1] = molecular target: T1, human PSMA expressed on cells (LNCaP, 22Rv1, PC3 cells stably transfected to express human PSMA) (human, UniProt Q04609 1-750); experiment: cell-binding assay on PSMA+ cells
T1 construct: whole, on cells; Type II transmembrane protein; The background section calls it a non-covalent homodimer; also called Prostate Specific Membrane Antigen; Glutamate Carboxypeptidase II

[2] = molecular target: human PSMA protein (ELISA) (human, UniProt Q04609 44-750, limits assumed); experiment: ELISA on human PSMA protein
Protocol: The two indicated antibodies were tested for binding in a standard ELISA assay to human PSMA. The human PSMA protein was used at a concentration of 2 μg/mL to capture UniAbs at 50 ng/mL. Antibody binding was detected with a goat anti-human IgG HRP conjugated antibody (ThermoFisher 31413). All antibodies were diluted in 1× PBS with 0.05% Tween-20 and 1% dry milk powder.

human PSMA protein (ELISA), sequence (Q04609 44-750 limits assumed): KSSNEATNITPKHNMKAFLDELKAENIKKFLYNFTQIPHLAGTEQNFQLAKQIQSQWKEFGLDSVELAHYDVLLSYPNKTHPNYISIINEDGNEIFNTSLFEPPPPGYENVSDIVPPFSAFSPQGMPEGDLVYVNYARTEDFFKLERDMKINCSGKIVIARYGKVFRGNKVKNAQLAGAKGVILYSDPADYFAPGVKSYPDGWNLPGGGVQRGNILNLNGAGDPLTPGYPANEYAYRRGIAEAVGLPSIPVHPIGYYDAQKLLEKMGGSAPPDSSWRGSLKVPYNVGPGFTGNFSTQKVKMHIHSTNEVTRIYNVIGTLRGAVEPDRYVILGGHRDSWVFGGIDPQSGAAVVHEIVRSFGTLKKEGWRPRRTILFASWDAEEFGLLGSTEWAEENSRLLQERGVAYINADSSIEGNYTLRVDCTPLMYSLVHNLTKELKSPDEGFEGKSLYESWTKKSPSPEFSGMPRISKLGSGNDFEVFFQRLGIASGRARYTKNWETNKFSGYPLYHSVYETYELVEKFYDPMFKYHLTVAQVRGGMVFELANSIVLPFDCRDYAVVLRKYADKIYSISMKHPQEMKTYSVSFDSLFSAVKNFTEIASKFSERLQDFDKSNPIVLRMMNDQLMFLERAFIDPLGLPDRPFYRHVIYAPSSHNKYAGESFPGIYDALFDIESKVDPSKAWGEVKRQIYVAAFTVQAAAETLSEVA
T1 sequence (Q04609 whole entry): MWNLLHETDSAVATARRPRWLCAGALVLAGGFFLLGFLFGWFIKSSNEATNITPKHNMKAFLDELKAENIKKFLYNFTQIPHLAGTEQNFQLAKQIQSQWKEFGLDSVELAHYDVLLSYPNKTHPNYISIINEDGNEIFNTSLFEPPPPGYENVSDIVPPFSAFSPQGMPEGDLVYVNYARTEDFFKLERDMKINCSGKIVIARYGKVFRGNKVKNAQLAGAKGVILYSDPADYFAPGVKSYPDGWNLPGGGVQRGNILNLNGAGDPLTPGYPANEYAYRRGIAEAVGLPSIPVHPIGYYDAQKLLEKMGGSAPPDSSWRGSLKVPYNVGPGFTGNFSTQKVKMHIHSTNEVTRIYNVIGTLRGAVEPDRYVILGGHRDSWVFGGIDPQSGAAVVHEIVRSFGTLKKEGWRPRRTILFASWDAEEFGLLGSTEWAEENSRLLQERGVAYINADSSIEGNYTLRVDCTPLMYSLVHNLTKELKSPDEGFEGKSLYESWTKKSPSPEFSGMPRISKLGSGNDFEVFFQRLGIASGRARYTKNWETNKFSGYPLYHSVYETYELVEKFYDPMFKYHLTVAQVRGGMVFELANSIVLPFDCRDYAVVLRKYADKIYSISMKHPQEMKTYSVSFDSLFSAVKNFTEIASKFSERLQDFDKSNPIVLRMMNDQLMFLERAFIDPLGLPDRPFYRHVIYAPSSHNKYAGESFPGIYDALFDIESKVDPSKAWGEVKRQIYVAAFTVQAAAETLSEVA

| Binder | binding result [1] | binding result [2] |
| --- | --- | --- |
| B1 | binds | binds |
| B2 | binds | binds |
